Assay [1] addresses T1, BV2373 (recombinant CoV S glycoprotein, Prototype) (SARS-CoV-2, UniProt P0DTC2 14-1273). The assay is described as follows: hACE2 receptor inhibition ELISA on coated rS; competitor hACE2-His. For orientation: An ELISA detects its analyte on a solid surface through an enzyme-linked reagent.
The target of assay [2] is T2, BV2541 (recombinant CoV S glycoprotein, BA.4) (SARS-CoV-2, UniProt P0DTC2 14-1273). The description is as above.
In assay [3] the target is T3, BV2465 (recombinant CoV S glycoprotein, Delta) (SARS-CoV-2, UniProt P0DTC2 14-1273). Described as above.
Assay [4] deals with T2, BV2541 (recombinant CoV S glycoprotein, …). The assay is described as follows: ELISA on coated rS.
Assay [5] addresses T1, BV2373 (recombinant CoV S glycoprotein, …). The assay is described as follows: BLI, antibody on anti-mouse Fc biosensor, rS analyte. On the technique in general: BLI is a label-free optical method that tracks binding on a fibre tip over time.
Assay [6] addresses T4, BV2425 (recombinant CoV S glycoprotein, Alpha) (SARS-CoV-2, UniProt P0DTC2 14-1273). Described as above.
The target of assay [7] is T5, BV2443 (recombinant CoV S glycoprotein, Gamma) (SARS-CoV-2, UniProt P0DTC2 14-1273). The assay is described as above.
Assay [8] addresses T3, BV2465 (recombinant CoV S glycoprotein, …). Described as above.
In assay [9] the target is BV2542 (recombinant CoV S glycoprotein, BA.2.12.1) (SARS-CoV-2, UniProt P0DTC2 14-1273). The assay is described as follows: hACE2 receptor inhibition ELISA on coated rS; competitor hACE2-His.
Assay [10] concerns the target BV2540 (recombinant CoV S glycoprotein, BA.5) (SARS-CoV-2, UniProt P0DTC2 14-1273). Described as above.
Assay [11] concerns the target T2, BV2541 (recombinant CoV S glycoprotein, …). The description is as above. The source holds these as a separate data set.
The target in assay [12] is BV2589 (recombinant CoV S glycoprotein, BQ.1.1) (SARS-CoV-2, UniProt P0DTC2 14-1273). The assay is described as above.
The target in assay [13] is BV2523 (recombinant CoV S glycoprotein, BA.2) (SARS-CoV-2, UniProt P0DTC2 14-1273). The assay is described as above.
Assay [14] addresses BV2561 (recombinant CoV S glycoprotein, BA.2.75) (SARS-CoV-2, UniProt P0DTC2 14-1273). The assay is described as above.
Assay [15] deals with BV2509 (recombinant CoV S glycoprotein, BA.1) (SARS-CoV-2, UniProt P0DTC2 14-1273). The assay is described as above.
In assay [16] the target is BV2562 (recombinant CoV S glycoprotein, BA.4.6) (SARS-CoV-2, UniProt P0DTC2 14-1273). Described as above.
In assay [17] the target is T4, BV2425 (recombinant CoV S glycoprotein, …). The experiment in a line: ELISA, plate coated with rS, serial dilution of the mAb, anti-mouse HRP, A450.
Assay [18] addresses T5, BV2443 (recombinant CoV S glycoprotein, …). The assay is described as above.
Assay [19] has as its target T3, BV2465 (recombinant CoV S glycoprotein, …). The assay is described as above.
Assay [20] has as its target BV2438 (recombinant CoV S glycoprotein, Beta) (SARS-CoV-2, UniProt P0DTC2 14-1273). Described as above.
Assay [21] concerns the target Delta Plus CoV S glycoprotein (recombinant) (Severe acute respiratory syndrome …, UniProt P0DTC2 14-1273).

Where two headings read alike, the source gives them in different places.

B1: 199.9 (antibody, V domains shown)
VH: LVQLQQPGAELVKPGASVKLSCKASGYTFTSYFMYWVRQRPGQGLEWIGEINPSNGGNDFNEKFKSKATLTVDKSSSTAYMQLSSLTSEDSAVYYCTRSGDYGYDGFAYWGQGTLVTVSA
VL: NIVLTQSPASLAVSLGQRATISCRASESVDTYGNSFMHWYQQKPGQPPKLLIYLASNLESGVPARFSGSGSRTDFTLTIDPVEADDAATYYCQQNNEDPLTFGAGTKLELK
By IC50 is commonly meant the concentration at which inhibition is half-maximal. The term EC50 denotes the concentration at which the effect is half-maximal. Regarding B1, the IC50 in assay [1] was over 3 µg/mL; in assay [2] it was 0.038 µg/mL; in assay [3], over 3 µg/mL. Further, in [4], the EC50 is 0.016 µg/mL.

B2: 239.12 (antibody, V domains shown)
VH: EVKLEESGPVLVKPSQSLSLTCTVTGYSITSDYAWNWIRQFPGNKLEWMGYISNSAGTSYNPSLKSRISITRDTSKNQFFLQLNSVTTEDTATYYCASGGWSSYYAMDYWGQGTSVTVSS
VL: DIQMTQSPASLSASVGETVTITCGASENIYGALNWYQRKQGKSPQLLIYGATNLADGMSSRFSGSGSGRQYSLKISSLHPDDVATYYCQNVLSTPYTFGGGTKLEIKR
Usually Kd stands for the constant that tells how readily two partners part at equilibrium. The koff is the rate constant with which the complex falls apart. A word on the kon: it is the second-order rate constant of association. Turning to B2, the Kd in assay [5] is 3.81 pM; in assay [6], 2.26 pM; in assay [7] it was 4.31 pM; in [8], 3.45 pM. Also, the figures for the dissociation rate constant (koff) in [5], in [6] and in assay [7] were 1.79e-07 s⁻¹, 1.62e-07 s⁻¹ and 1.25e-07 s⁻¹, respectively. Also, the kon in [5] is 52900 M⁻¹ s⁻¹; in assay [6] it was 72800 M⁻¹ s⁻¹; in assay [7] it was 29400 M⁻¹ s⁻¹. Also, the IC50 in assay [9] is over 3 µg/mL; in assay [10], over 5 µg/mL; in [11], over 3 µg/mL; in assay [12] it was over 3 µg/mL; in [13], over 3 µg/mL; in assay [14], over 5 µg/mL. The IC50 in assay [15] is over 3 µg/mL; in [16], over 5 µg/mL. In addition, the EC50 in assay [17] was about 5 µg/mL; in assay [18], about 5 µg/mL; in assay [19], 0.025 µg/mL; in [20], over 5 µg/mL; in assay [21], 0.0199 µg/mL.
